Results taken from patent US20230265171A1.
Like-named read-outs stand apart in the source and are kept apart here.

Assays:
[1] = biological target: SARS-CoV-2 spike glycoprotein S1 region (SARS-CoV-2) (UniProt P0DTC2); experiment: ELISA, coated antigen
[2] = biological target: SARS-CoV-2 spike receptor binding domain (RBD) (SARS-CoV-2) (UniProt P0DTC2); experiment: ELISA, coated antigen
[3] = biological target: SARS-CoV-2 spike glycoprotein S1 region (SARS-CoV-2) (UniProt P0DTC2); experiment: ELISA, coated antigen; remark: listed apart in the source
[4] = biological target: SARS-CoV-2 spike receptor binding domain (RBD) (SARS-CoV-2) (UniProt P0DTC2); experiment: ELISA, coated antigen; remark: listed apart in the source
[5] = biological target: Dengue serotype 1 envelope antigens on pseudotype virus (Dengue virus serotype 1); experiment: cell-based or functional assay
HCoV-229E S1 (HCoV-229E) = HCoV-229E S1 (HCoV-229E) (UniProt P15423); experiment: ELISA, antigen coated at 2 µg/mL
HCoV-NL63 S1 (HCoV-NL63) = HCoV-NL63 S1 (HCoV-NL63) (UniProt Q6Q1S2); experiment: ELISA, antigen coated at 2 µg/mL
MERS CoV S1 (MERS CoV) = MERS CoV S1 (MERS CoV) (UniProt K9N5Q8); experiment: ELISA, antigen coated at 2 µg/mL
SARS CoV RBD (SARS-CoV) = SARS CoV RBD (SARS-CoV) (UniProt P59594); experiment: ELISA, antigen coated at 2 µg/mL
[6] = biological target: SARS-CoV-2 spike on GFP reporter pseudotype virus (SARS-CoV-2) (UniProt P0DTC2); experiment: cell-based or functional assay
[7] = biological target: SARS-CoV-2 spike receptor binding domain (RBD) (SARS-CoV-2) (UniProt P0DTC2); experiment: RBD:ACE2-His blocking ELISA, competitor ACE2-His

Row | Substance | EC50 [1] [µg/mL] | peak OD signal [1] [OD] | EC50 [2] [µg/mL] | peak OD signal [2] [OD] | EC50 [3] [µg/mL] | EC50 [4] [µg/mL] | Neutralization IC50 [5] [µg/mL] | EC50 (HCoV-229E S1 (HCoV-229E)) [µg/mL] | EC50 (HCoV-NL63 S1 (HCoV-NL63)) [µg/mL] | EC50 (MERS CoV S1 (MERS CoV)) [µg/mL] | EC50 (SARS CoV RBD (SARS-CoV)) [µg/mL] | CoV-2 pseudotype neutralization IC50 [6] [µg/mL] | IC50 [7] [µg/mL]
1 | IVIG (Gamunex) | 1410 | 1.99 | 1270 | 2.26 | 1380 | 1250 | 12.2 | 96 | 140 | 1330 | 1280 | – | –
2 | SARS CoV mAb [CR3022] (antibody) | – | – | – | – | 0.078 | 0.088 | – | – | – | – | – | 100 | –
3 | SARS CoV-2 mAb [SAD-S35] (antibody) | – | – | – | – | 0.058 | 0.057 | – | – | – | – | – | 0.26 | 1.1
